For one molecule, Kd results are on record in article PMC8795569.

This experiment has as its target HA-APP (full-length, APP695 spliced isoform), P05067. Put plainly: ELISA. For orientation: ELISA stands for enzyme-linked immunosorbent assay.

B1: MDGA1-Fc (MDGA1 extracellular domains fused to human Fc) (Fc fusion)
chain: QGVYAPAQAQIVHAGQACVVKEDNISERVYTIRESDTLVLQCLVTGHPRPQVRWTKTAGSASDKFQETSVFNETLRIERIARTQGGRYYCKAENGVGVPAIKSIRVDVQYLDEPVLTVHQTVSDVRGNFYQEKTVFLRCTVSSNPPARFIWKRGSDTLSHSQDNGVDIYEPLYTQGETKVLKLKNLRPQDYASYTCQVSVRNVCGIPDKSITFQLTNTTAPPTLKLSVNETLVVNPGENVTVQCLLTGGDPLPQLHWSHGPGPLPLGALAQGGTLSIPSVQARDSGYYNCTATNNVGNPAKKTVNLLVRSLKNATFQITPDMIKESENIQLGQDLKLSCHVDAVPQEKVNYQWFKNGKPARTSKRLLVTRNDPELPAVTSSLELIDLHFSDYGTYLCVASFPGSPVPDLSVEVNISSETVPPTISVPKGRAVVTVREGSPAELQCEVRGKPRPPVLWSRVDKEAALLPSGLALEETPDGKLRVERVSREMSGTYRCQTARYNGFNVRAREAQVQLTVHFPPEVEPSSQDVRQALGRPVLLRCSLLRGSPQRIASAVWRFKGQLLPPPPVLPAAAAEGPDHAELRLDALTRDSSGNYECSVSNDVGSATCLFQVSAKAYSPEFYFDTPNPTRSHKLSKNYSYVLQWTQREPDAVDPVLNYRLSIRQLNQHNAMVKAIPVRRVEKGQLLEYTLTDLRVPHSYEIHLTPYTTFGAGDMASRVIHYTEPINSPSLSDNTCHFEDEKICGYTQDLTDNFDWTRQNALTQNPKRSPNTGPPTDISGTPEGYYMFIETSRPRELGDRARLVSPLYNASAKFYCVSFFYHMYGKHIGSLNLLVRSRNKGTLDTHAWSLSGNKGNVWQQAHVPINPSGPFQIIFEGVRGSGYLGDIAIDDVTLKKGECPRRQMDPNKVVVMPGS
modifications: not checked
Molecule B1 came in with a Kd of 84.7 nM.
